According to publication PMC5531734 (Molecular Biology of the Cell, 2017):

Target: Na/K-ATPase α1-β2 (ATP1A1 with ATP1B2) (human, UniProt P05023-1 1-1023; P14415 1-290)
Test: binding to transfected cells, Western blot of washed cell pellets

retinoschisin binding relative to α3-β2 (densitometry): 1.5 fold of binding to α3-β2
B1: retinoschisin (natural protein)
chain: STEDEGEDPWYQKACKCDCQGGPNALWSAGATSLDCIPECPYHKPLGFESGEVTPDQITCSNPEQYVGWYSSWTANKARLNSQGFGCAWLSKFQDSSQWLQIDLKEIKVISGILTQGRCDIDEWMTKYSVQYRTDERLNWIYYKDQTGNNRVFYGNSDRTSTVQNLLRPPIISRFIRLIPLGWHVRIAIRMELLECVSKCA
